Source: patent US20210047410A1 (ONCOLMMUNE, published 2021)
Values belong to the molecule of their own block, whether it stands above or below them.

Tests used:
[1] = molecular target: OFP-tagged human CTLA-4 on CHO cells (human) (UniProt P16410)
[2] = molecular target: human CTLA-4-Fc (human) (UniProt P16410); experiment: competition ELISA: B7-2-Fc immobilized (blocked ligand), biotinylated CTLA-4-Fc at […], antibody varied
[3] = molecular target: human CTLA-4-Fc (human) (UniProt P16410); experiment: competition ELISA: hCTLA-4-Fc coated at 1 µg/ml, blocked ligand biotinylated hB7-1-Fc at […], antibody varied
[4] = molecular target: human CTLA-4-Fc (human) (UniProt P16410); experiment: BLI (Octet Red96); antibody on anti-hIgG-Fc biosensor, antigen in solution from 600 nM
[5] = molecular target: polyhistidine tagged human CTLA-4 (human) (UniProt P16410); experiment: flow cytometry, competition: 200 ng biotinylated polyhistidine-tagged CTLA-4 on CHO cells expressing human B7-1 (blocked ligand), antibody varied, PE-streptavidin
[6] = molecular target: human CTLA-4-Fc (human) (UniProt P16410); experiment: flow cytometry, competition: biotinylated CTLA-4-Fc 200 ng/test on hB7-1-positive, FcR-negative L929 cells (blocked ligand), antibody varied, PE-streptavidin
[7] = molecular target: human CTLA-4-Fc (human) (UniProt P16410); experiment: competition ELISA; hB7-2-Fc coated, biotinylated CTLA-4-Fc at […]
[8] = molecular target: human CTLA-4-Fc (human) (UniProt P16410); experiment: flow cytometry, competition: biotinylated CTLA-4-Fc on CHO cells expressing mB7-2 (blocked ligand), antibody varied, PE-streptavidin
[9] = molecular target: human CTLA-4-Fc (human) (UniProt P16410); experiment: flow cytometry, competition: biotinylated CTLA-4-Fc on CHO cells expressing hB7-1 (blocked ligand), antibody varied, PE-streptavidin
[10] = molecular target: human CTLA-4 on or in cells (T cells of Ctla4 h/h knock-in mice; CHO stable lines and 293T cells expressing hCTLA-4) (human) (UniProt P16410); experiment: cell-based or functional assay
[11] = molecular target: human CTLA-4-Fc (human) (UniProt P16410); experiment: ELISA: antibody coated at varying doses, biotinylated CTLA-4-Fc at […], streptavidin-HRP
[12] = molecular target: human CTLA-4-Fc (human) (UniProt P16410); experiment: competition ELISA: hCTLA-4-Ig immobilized at […], blocked ligand biotinylated hB7-1-Fc at […], antibody varied, avidin-HRP
[13] = molecular target: human CTLA-4-Fc (human) (UniProt P16410); experiment: competition ELISA; hB7-1-Fc coated at 0.5 µg/ml, biotinylated CTLA-4-Fc at […]
[14] = molecular target: human CTLA-4-Fc (human) (UniProt P16410); experiment: flow cytometry, competition: 200 ng hCTLA-4-Fc on CHO cells expressing mouse B7-1 (blocked ligand), antibody varied
[15] = molecular target: T1, Recombinant mouse Ctla-4Fc protein (mouse, UniProt P09793 36-162, limits assumed); experiment: competition ELISA: B7-2 coated (blocked ligand), biotinylated mouse Ctla-4-Fc, antibody varied, avidin-HRP
T1 construct: Bought; also called biotinylated mouse Ctla-4-Fc; not shown: Fc part; not described

[16] = molecular target: T1, Recombinant mouse Ctla-4Fc protein; experiment: competition ELISA: B7-1 coated (blocked ligand), biotinylated mouse Ctla-4-Fc, antibody varied, avidin-HRP
[17] = molecular target: human CTLA-4-Fc (human) (UniProt P16410); experiment: BLI (Octet Red96)
[18] = molecular target: polyhistidine tagged human CTLA-4 (human) (UniProt P16410); experiment: ELISA; His-hCTLA-4 coated at 0.5 µg/ml, varying antibody doses
[19] = molecular target: T1, Recombinant mouse Ctla-4Fc protein; experiment: ELISA: plate bound mouse Ctla-4-Fc, antibody varied
[20] = molecular target: T1, Recombinant mouse Ctla-4Fc protein; experiment: ELISA, binding to soluble mouse Ctla-4-Fc; neither sheet nor legend says which component's concentration is on the axis
[21] = molecular target: mouse Ctla-4 in cells (spleen CD3+CD4+ cells of Ctla4 m/m mice) (mouse) (UniProt P09793); experiment: cell-based or functional assay
[22] = molecular target: T1, Recombinant mouse Ctla-4Fc protein; experiment: competition ELISA: mB7-2 coated (blocked ligand), biotinylated mouse Ctla-4-Fc, antibody varied

Sequence of human CTLA-4-Fc (human) (P16410 37-161 limits assumed): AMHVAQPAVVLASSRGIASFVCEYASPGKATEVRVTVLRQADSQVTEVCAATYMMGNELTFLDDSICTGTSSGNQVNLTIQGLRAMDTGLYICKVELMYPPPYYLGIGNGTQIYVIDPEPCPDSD
Sequence of OFP-tagged human CTLA-4 on CHO cells (human) (P16410 36-223): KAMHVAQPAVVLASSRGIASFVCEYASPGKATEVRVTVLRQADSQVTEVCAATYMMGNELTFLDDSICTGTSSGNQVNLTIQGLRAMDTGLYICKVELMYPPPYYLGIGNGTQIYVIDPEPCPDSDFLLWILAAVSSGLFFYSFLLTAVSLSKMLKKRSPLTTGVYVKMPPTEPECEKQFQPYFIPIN
Sequence of polyhistidine tagged human CTLA-4 (human) (P16410 36-162 limits assumed): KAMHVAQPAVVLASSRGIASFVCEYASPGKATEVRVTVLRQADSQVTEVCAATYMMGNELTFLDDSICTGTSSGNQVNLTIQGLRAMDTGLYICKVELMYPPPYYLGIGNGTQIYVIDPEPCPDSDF
Sequence of human CTLA-4 on or in cells (T cells of Ctla4 h/h knock-in mice; CHO stable lines and 293T cells expressing hCTLA-4) (human) (P16410 36-223): as the sequence (P16410 36-223) above

Molecule: B7-H2-GFP on transfected P815 cells (ligand)
- % GFP+OFP+ cells (upper right quadrant), Mix-0 h [1]: 0.19%
- % GFP+OFP+ cells (upper right quadrant), Mix-1 h [1]: 0.3%
- % GFP+OFP+ cells (upper right quadrant), Mix-4 h [1]: 0.49%

Molecule: L3D10 chimera antibody (human IgG1 Fc and the variable regions of mouse anti-human CTLA-4 mAb L3D10)
- IC50 (read off the curve) [2]: 0.1 µg/mL
- IC50 (read off the curve) [3]: 0.2 µg/mL
- Kd [4]: 2.3 nM
- IC50 (read off the curve) [5]: 2 µg/mL
- IC50 (read off the curve) [6]: 1 µg/mL
- IC50 [7]: 0.1 µg/mL
- IC50 (read off the curve) [8]: 0.9 µg/mL
- IC50 (read off the curve) [9]: 8 µg/mL
- level of hB7-2 on DC of human CD34+ reconstituted NSG mice [10]: 2.5 fold
- EC50 (read off the curve) [11]: 1 µg/mL
- IC50 (read off the curve) [12]: 0.4 µg/mL
- IC50 [13]: 3 µg/mL
- lowest concentration with significant blocking [13]: 0.2 µg/mL
- IC50 (read off the curve) [14]: 1 µg/mL

B1: HL12 (humanized L3D10 clone) (antibody, from another filing, V domains shown)
VH: QVQLQESGPGLVKPSETLSLTCTVSGFSLTSYGLSWIRQPPGKGLEWIGYIWYDGNTNFHPSLKSRVTISKDTSKNQFSLKLSSVTAADTAVYYCAKTEGHYYGSNYGYYALDYWGQGTSVTVSS
VL: DIQMTQSPSSLSASVGDRVTITCRASENIYSNLAWYQQKQGKAPKLLLYAATNLQDGVPSRFSGSGSGTDYTLTISSLQPEDFATYFCQHLWGTPYTFGQGTKLEIK
- fold increase in off-rate against L3D10 [17]: 4 fold
- Kd [4]: 7.2 nM
- koff [4]: 0.0016 s⁻¹
- kon [4]: 230000 M⁻¹ s⁻¹
- fold reduction of binding at pH 4.5 against pH 7.0 (by increase of IC50) [18]: > 100 fold
- fold reduction of binding at pH 5.5 against pH 7.0 (by increase of IC50) [18]: > 10 fold

B2: HL32 (humanized L3D10 clone) (antibody, from another filing, V domains shown)
VH: QVQLQESGPGLVKPSETLSLTCTVSGFSLTSYGLSWIRQPPGKGLEWIGYIWYDGNTNFHSPLKSRVTISVDTSKNQFSLKLSSVTAADTAVYYCAKTEGHYYGSNYGYYALDYWGQGTLVTVSS
VL: DIQMTQSPSSLSASVGDRVTITCRASENIYSNLAWYQQKQGKAPKLLLYAATNLQDGVPSRFSGSGSGTDYTLTISSLQPEDFATYFCQHLWGTPYTFGQGTKLEIK
- fold increase in off-rate against L3D10 [17]: 4 fold
- Kd [4]: 7.1 nM
- koff [4]: 0.0019 s⁻¹
- kon [4]: 270000 M⁻¹ s⁻¹
- fold reduction of binding at pH 4.5 against pH 7.0 (by increase of IC50) [18]: > 100 fold
- fold reduction of binding at pH 5.5 against pH 7.0 (by increase of IC50) [18]: > 10 fold

B4: anti-mouse Ctla-4 mAb 9D9 (antibody, V domains shown)
VH: EAKLQESGPVLVKPGASVKMSCKASGYTFTDYYMNWVKQSHGKSLEWIGVINPYNGDTSYNQKFKGKATLTVDKSSSTAYMELNSLTSEDSAVYYCARYYGSWFAYWGQGTLITVST
VL: DIVMTQTTLSLPVSLGDQASISCRSSQSIVHSNGNTYLEWYLQKPGQSPKLLIYKVSNRFSGVPDRFSGSGSGTDFTLKISRVEAEDLGVYYCFQGSHVPYTFGGGTKLEIK
- EC50 (read off the curve) [20]: ~0.4 µg/mL
- level of mB7-1 on DC of WT mice [21]: 15%
- IC50 (read off the curve) [22]: ~2 µg/mL

Continued, values first:

- IC50 (read off the curve) [15]: 0.3 µg/mL
- IC50 (read off the curve) [16]: 1 µg/mL
Molecule: hamster anti-mouse Ctla-4 mAb 4F10 (antibody)

- EC50 (read off the curve) [19]: 1 µg/mL
B3: anti-mouse Ctla-4 mAb 9H10 (antibody, from another filing)
scFv: YPYDVPDYAGAQPARSDIVMTQSPSSLAVSVGEKVTISCKSSQSLLYGSSHYLAWYQQKVGQSPKLLIYWASTRHTGIPDRFIGSGSGTDFTLSLSSVQAEDMADYFCQQYFSTPWTFGAGTRVEIKSGSGGGSGGGSGGGSQVQLLQSESELVKPGASVKLSCKTSGYTFTDYYIHWVKQKPGQGLEWIGLINPNNDGTNYNQKFQGKATLTADKSSSTAYMELNSLTFDDSVIYFCARASSRLRMARTTSDYYAMDYWGQGIQVTVSSVDSSGSGGCKPCICTVPEVSSVFIFPPKPKDVLTITLTPKVTCVVVDISKDDPEVQFSWFVDDVEVHTAQTQPREEQFNSTFRSVSELPIMHQDWLNGKEFKCRVNSAAFPAPIEKTISKTKGRPKAPQVYTIPPPKEQMAKDKVSLTCMITDFFPEDITVEWQWNGQPAENYKNTQPIMDTDGSYFVYSKLNVQKSNWEAGNTFTCSVLHEGLHNHHTEKSLSHSPGK
